Source: publication PMC9477746, “Mechanism of AAA+ ATPase-mediated RuvAB–Holliday junction branch migration” (Nature, 2022)

B1: HJ-Y2Ap (immobile Holliday junction) (structured_DNA)
DNA 1: CTCATCGAGAATCTGCCGAGAGACCGAGCAGAATTCTATGTGTTTACCAAGCGCTG
DNA 2: CAGCGCTTGGTAAACACATAGAATTCTGCTCGGTCTGAGCCGTCTAAGAGACCTAG
DNA 3: CTAGGTCTCTTAGACGGCTCACTGGCTGTGGGATCCGAGCTGTCTAGAGACATCGA
DNA 4: TCGATGTCTCTAGACAGCTCGGATCCCACAGCCAGTCTCGGCAGATTCTCGATGAG
B2: RuvA from S. typhimurium (natural protein, UniProt P66746 1-203, looked up)
chain: MIGRLRGIILEKQPPIVLLETGGVGYEVHMPMTCFYELPEAGQEAIVFTHFVVREDAQLLYGFNNKQERTLFKELIKTNGVGPKLALAILSGMSAQQFVNAVEREELGALVKLPGIGKKTAERLIVEMKDRFKGLHGDLFTPAVDLVLTSPASPTSEDAEQEAVAALVALGYKPQEASRMVSKIARPDASSETLIRDALRAAL
notes: RuvA, Holliday junction branch migration protein, Salmonella typhimurium; three domains (I, II, III); Tetramer in solution by gel filtration; two tetramers (eight chains) on the Holliday junction in the cryo-EM complex; Cloned into pET-52b(+) by NcoI and SacI; also called RuvA (S. typhimurium); recombinant S. typhimurium RuvA; source: E. coli BL21(DE3), purified (HisTrap, Superdex 200 SEC)
B3: N-terminally truncated RuvB (16-333) from S. thermophilus (domain or fragment, UniProt Q03IE9 16-333, looked up)
chain: VERTLRPQYFKEYIGQDKVKDQLKIFIEAAKLRDEALDHTLLFGPPGLGKTTMAFVIANEMGVNLKQTSGPAIEKAGDLVAILNDLEPGDILFIDEIHRMPMAVEEVLYSAMEDYYIDIMIGAGETSRSVHLDLPPFTLVGATTRAGMLSNPLRARFGINGHMEYYELPDLTEIVERTSEIFEMTITPEAALELARRSRGTPRIANRLLKRVRDYAQIMGDGVIDDKIADQALTMLDVDHEGLDYVDQKILRTMIEMYGGGPVGLGTLSVNIAEERETVEDMYEPYLIQKGFIMRTRTGRVATAKAYEHMGYDYTRDN
notes: RuvB, Holliday junction AAA+ ATPase, Streptococcus thermophilus, residues 16-333; domains RuvB^L 21-181, RuvB^S 182-254, RuvB^H 255-330; C-terminal TEV site, linker and HA tag; TEV cleavage done during dialysis, so residues of the TEV site may remain at the C-terminus; Tetrameric by gel filtration in solution, hexamer on DNA in the cryo-EM complex; also called RuvB (S. thermophilus); RuvB motor; …

Legend:
RuvA = target: T1, RuvA (Salmonella typhimurium, UniProt P66746 1-203); assay: EMSA; 5 mM EDTA; complex II (two tetramers) saturated at >500 nM RuvA; complex I (one tetramer) at <200 nM; EMSA: 30 mM Tris-HCl pH 8, 5 mM EDTA, 1 mM DTT, 100 ug/ml BSA, 30 min at 37 C; 6% PAGE at 4 C in 0.5x TAE; conditions: protein: recombinant; tags: C-terminal His4; chain copies: 4; label: 5'-32P on one strand; four-way junction 1:2 2:3 3:4 4:1
T1 sequence: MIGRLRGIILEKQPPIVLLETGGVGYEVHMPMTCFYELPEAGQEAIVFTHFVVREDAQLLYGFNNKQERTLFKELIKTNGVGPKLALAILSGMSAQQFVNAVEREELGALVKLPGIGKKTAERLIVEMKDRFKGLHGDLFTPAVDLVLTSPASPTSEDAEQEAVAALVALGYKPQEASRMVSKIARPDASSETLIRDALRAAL

[1] = target: B3; assay: cryo-EM structure; same reconstitution of the RuvAB-Holliday junction hetero-complex, on ice 30 min before vitrification (dataset t1); conditions: both partners purified
[2] = target: the molecule itself; assay: cryo-EM structure; in vitro reconstituted RuvAB-Holliday junction hetero-complex: SEC-purified RuvA-HJ mixed with RuvB, 10 mM MgCl2, equimolar ATPγS and ADP (1 mM), 37 °C 10 min, then on ice about 5 h before vitrification (dataset t2)
[3] = target: the molecule itself; assay: SEC; Superdex 200 10/300GL, 100 mM NaCl, 1 mM EDTA, 0.5 mM DTT, 5% glycerol, 100 mM Tris-HCl pH 8; each protein alone; mass estimated from retention of a gel filtration standard

Binder	binding result (RuvA)	stoichiometry N [1] [RuvA^D3 per RuvB hexamer]	stoichiometry N [2]	stoichiometry N [3]
B1	binds			
B2		1	4	
B3			6	4
